This is an account of results in patent US20220259289A1 (Janssen / Centocor, published 2022).

What all share (test): ELISA, bacterial lysate on plate-bound antigen, luminescence
(In an ELISA, binding on a coated surface is turned into a signal by an enzyme label.)

One assay deals with T1, human serum albumin (human, UniProt P02768 25-609).
T1 construct: Negative control antigen of the screening ELISA; also called HSA
On the procedure: (§1) Streptavidin-coated Maxisorp plates (Nunc catalog 436110) were blocked for 1 h in Starting Block T20 (Pierce) and then coated with biotinylated CD137 (using same antigen as in panning) or negative controls (an unrelated Fc-fused recombinant protein and human serum albumin) for 1 h. Plates were rinsed with TBST and diluted lysate was applied to plates for 1 h. Following additional rinses, wells were treated with HRP-conjugated anti-Centyrin antibody (PAB25) for 1 h and then assayed with POD (Roche catalog 11582950001).

The target in assay [1] is T2, recombinant biotinylated human CD137 protein (Fc-fusion protein, R&D Systems 838-4B) (human, UniProt Q07011 24-186, biotinylated (site not stated)).
T2 construct: Bought Fc fusion; The ELISA used the same antigen as the panning; also called CD137-Fc; biotinylated CD137; not shown: Fc part of the bought fusion protein
The method, then: as §1

Assay [2] has as its target unrelated Fc-fused recombinant protein (negative control).

T1 sequence (P02768 25-609 limits assumed): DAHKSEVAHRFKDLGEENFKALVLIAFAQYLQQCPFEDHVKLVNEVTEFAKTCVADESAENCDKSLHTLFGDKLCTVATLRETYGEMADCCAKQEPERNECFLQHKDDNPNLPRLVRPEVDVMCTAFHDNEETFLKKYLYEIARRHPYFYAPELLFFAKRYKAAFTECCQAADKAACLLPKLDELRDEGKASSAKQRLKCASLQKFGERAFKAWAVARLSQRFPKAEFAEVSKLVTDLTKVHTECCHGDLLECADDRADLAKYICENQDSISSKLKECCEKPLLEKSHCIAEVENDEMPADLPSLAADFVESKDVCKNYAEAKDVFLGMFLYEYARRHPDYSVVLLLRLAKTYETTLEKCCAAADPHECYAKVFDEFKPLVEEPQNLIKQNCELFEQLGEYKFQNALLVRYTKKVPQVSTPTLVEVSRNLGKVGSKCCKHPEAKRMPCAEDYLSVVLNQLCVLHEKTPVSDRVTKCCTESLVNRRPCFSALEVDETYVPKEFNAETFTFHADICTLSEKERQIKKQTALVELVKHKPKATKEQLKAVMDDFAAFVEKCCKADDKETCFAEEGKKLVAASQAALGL

B1: ISOP120HR5P1H7 (designed binder, not shown: small tags and cut ends)
chain: LPAPKNLVVSRVTEDSARLSWTAPDAAFDSFDIYYGEPGNLGEAIVLTVPGSERSYDLTGLKPGTEYLVTIYGVKGGDYSSPLSAIFTT
notes: FN3 domain (Centyrin); tested as E. coli lysate
Take B1: the “ELISA HSA (RLU)” value with human serum albumin came to 480 RLU. In addition, in assay [1], the “ELISA CD137-Fc (RLU)” value turned out to be 1.53e+06 RLU. Moreover, the ELISA Fc Control (RLU) in assay [2] was 640 RLU.

B2: ISOP120FR5P1A11 (designed binder, not shown: small tags and cut ends)
chain: LPAPKNLVVSRVTEDSARLSWTAPDAAFDSFTIYYFENENGGEAIVLTVPGSERSYDLTGLKPGTEYLVTIYGVKGGHWSRPLSAIFTT
notes: as for B1
B2: in the assay with human serum albumin, the “ELISA HSA (RLU)” value was determined as 480 RLU. Also, in assay [1], the “ELISA CD137-Fc (RLU)” value is 920000 RLU. For the same molecule, the ELISA Fc Control (RLU) in assay [2] came out at 480 RLU.

B3: ISOP120HR5P1D9 (designed binder, not shown: small tags and cut ends)
chain: LPAPKNLVVSRVTEDSARLSWTAPDAAFDSFDIYYRELDFQGEAIVLTVPGSERSYDLTGLKPGTEYLVIIYGVKGGSYSYTLSAIFTT
notes: as for B1
For the molecule B3, the “ELISA HSA (RLU)” value with human serum albumin amounted to 400 RLU. Also, in assay [1], the “ELISA CD137-Fc (RLU)” value was found to be 405000 RLU. Also, the ELISA Fc Control (RLU) in assay [2] turned out to be 480 RLU.

B4: ISOP120ER5P1C6 (designed binder, not shown: small tags and cut ends)
chain: LPAPKNLVVSRVTEDSARLSWTAPDAAFDSFSIYYGEWHALGEAIVLTVPGSERSYDLTGLKPGTEYVVTIYGVKGGTYSLPLSAISTT
notes: as for B1
As for B4, the “ELISA HSA (RLU)” value with human serum albumin was found to be 400 RLU. For the same molecule, in assay [1], the “ELISA CD137-Fc (RLU)” value amounted to 495000 RLU. Further, the ELISA Fc Control (RLU) in assay [2] stood at 320 RLU.

B5: ISOP120ER5P1A11 (designed binder, not shown: small tags and cut ends)
chain: LPAPKNLVVSRVTEDSARLSWTAPDAAFDSFEIYYKELRAEGEAIVLTVPGSERSYDLTGLKPGTEYLVTIYGVKGGSVSIPLSAIFTT
notes: as for B1
With B5, the “ELISA HSA (RLU)” value with human serum albumin turned out to be 320 RLU. The “ELISA CD137-Fc (RLU)” value in assay [1] stood at 1.14e+06 RLU. In addition, in assay [2], the ELISA Fc Control (RLU) is 320 RLU.

B6: ISOP120HR5P1G4 (designed binder, not shown: small tags and cut ends)
chain: LPAPKNLVVSRVTEDSARLSWTAPDAAFDSFEIYYREYWYSGEAIVLTVPGSERSYDLTGLKPGTEYLVTIYGVKGGWYSDPLSAIFTT
notes: as for B1
Consider B6, for which the “ELISA HSA (RLU)” value with human serum albumin was found to be 480 RLU. In assay [1], the “ELISA CD137-Fc (RLU)” value was found to be 347000 RLU. Besides, in assay [2], the ELISA Fc Control (RLU) came to 320 RLU.

B7: ISOP120HR5P1B4 (designed binder, not shown: small tags and cut ends)
chain: LPAPKNLVVSRVTEDSARLSWTAPDAAFDSFSIYYGEYYNLGEAIVLTVPGSERSYDLTGLKPGTEYVVTIYGVKGGGYSNPLSAIFTT
notes: as for B1
As for B7, the “ELISA HSA (RLU)” value with human serum albumin came to 320 RLU. Moreover, the “ELISA CD137-Fc (RLU)” value in assay [1] worked out at 1.19e+06 RLU. Moreover, the ELISA Fc Control (RLU) in assay [2] came out at 320 RLU.

B8: ISOP120FR5P1H5 (designed binder, not shown: small tags and cut ends)
chain: LPAPKNLVVSRVTEDSARLSWTAPDAAFDSLQIYYFEWVVGGEAIVLTVPGSERSYDLTGLKLGTEYLVTIYGVKGGNFSDPLSAIFTT
notes: as for B1
Take B8: the “ELISA HSA (RLU)” value with human serum albumin was 560 RLU. In addition, in assay [1], the “ELISA CD137-Fc (RLU)” value came out at 460000 RLU. For the same molecule, the ELISA Fc Control (RLU) in assay [2] stood at 400 RLU.

B9: ISOP120ER5P1B6 (designed binder, not shown: small tags and cut ends)
chain: LPAPKNLVVSRVTEDSARLSWTAPDAAFDSFDIYYGEHWKLGEAIVLTVQGSERSYDLTGLKPGTEYLVTIYGVKGGQWSFPLSAIFTT
notes: as for B1
Take B9: the “ELISA HSA (RLU)” value with human serum albumin worked out at 400 RLU. Further, the “ELISA CD137-Fc (RLU)” value in assay [1] came out at 1.35e+06 RLU. In addition, the ELISA Fc Control (RLU) in assay [2] is 160 RLU.

B10: ISOP120HR5P1F9 (designed binder, not shown: small tags and cut ends)
chain: LPAPKNLVVSRVTEDSARLSWTAPDAAFDSFYIYYREHWTIGEAIVLTVPGSERSYDLTGLKPGTEYLVTIYGVKGGAYSNPLSAIFTT
notes: as for B1
For B10, in the assay with human serum albumin, the “ELISA HSA (RLU)” value amounted to 400 RLU. In assay [1], the “ELISA CD137-Fc (RLU)” value turned out to be 1.18e+06 RLU. Also, in assay [2], the ELISA Fc Control (RLU) is 400 RLU.

B11: ISOP120ER5P1A8 (designed binder, not shown: small tags and cut ends)
chain: LPAPKNLVVSRVTEDSARLSWTAPDAAFDSFDIYYFEHPVGGEAIVLTVPGSERSYDLTGLKPGTEYLVTIYGVKGGYLSMPLSAIFTT
notes: as for B1
As to B11, the “ELISA HSA (RLU)” value in the assay with human serum albumin was determined as 320 RLU. Also, the “ELISA CD137-Fc (RLU)” value in assay [1] was 1.9e+06 RLU. The ELISA Fc Control (RLU) in assay [2] came out at 400 RLU.

B12: ISOP120ER5P1B4 (designed binder, not shown: small tags and cut ends)
chain: LPAPKNLVVSRVTEDSARLSWTAPDAAFDSFSILYGEPPALGEAIVLTVPGSERSYDLTGLKPGTEYWVTIYGVKGGVFSHPLSAIFTT
notes: as for B1
In the case of B12, the “ELISA HSA (RLU)” value with human serum albumin was found to be 400 RLU. Further, the “ELISA CD137-Fc (RLU)” value in assay [1] worked out at 499000 RLU. In addition, the ELISA Fc Control (RLU) in assay [2] amounted to 400 RLU.

B13: ISOP120HR5P1A7 (designed binder, not shown: small tags and cut ends)
chain: LPAPKNLVVSRVTEDSARLSWTAPDAAFDSFEIYYAEPRYYGEAIVLTVPGSERSYDLTGLKPGTEYTVTIYGVKGGYYSSPLSAIFTT
notes: as for B1
As for B13, in the assay with human serum albumin, the “ELISA HSA (RLU)” value came out at 480 RLU. The “ELISA CD137-Fc (RLU)” value in assay [1] was 987000 RLU. Besides, in assay [2], the ELISA Fc Control (RLU) stood at 400 RLU.

B14: ISOP120FR5P1C2 (designed binder, not shown: small tags and cut ends)
chain: LPAPKNLVVSRVTEDSARLSWTAPDAAFDSFDINYFEQPKGGEAIVLTVPGSERSYDLTGLKPGTEYLVTIYGVKGGPYSPPLSAIFTT
notes: as for B1
B14: the “ELISA HSA (RLU)” value with human serum albumin was 400 RLU. In assay [1], the “ELISA CD137-Fc (RLU)” value is 389000 RLU. The ELISA Fc Control (RLU) in assay [2] was determined as 240 RLU.

B15: ISOP120HR5P1H4 (designed binder, not shown: small tags and cut ends)
chain: LPAPKNLVVSRVTEDSARLSWTAPDAAFDSFDILYLEPYQEGEAIVLTVPGSERSYDLTGLKPGTEYLVTIYGVKGGYYSLPLSAIFTT
notes: as for B1
B15: the “ELISA HSA (RLU)” value with human serum albumin turned out to be 320 RLU. The “ELISA CD137-Fc (RLU)” value in assay [1] is 630000 RLU. In addition, the ELISA Fc Control (RLU) in assay [2] stood at 480 RLU.

B16: ISOP120ER5P1H6 (designed binder, not shown: small tags and cut ends)
chain: LPAPKNLVVSRVTEDSARLSWTAPDAAFDSFSIYYGEWHALGEAIVLTVPGSERSYDLTGLKPGTEYVVTIYGVKGGTYSLPLSAIFTT
notes: as for B1
As for B16, the “ELISA HSA (RLU)” value with human serum albumin was 480 RLU. The “ELISA CD137-Fc (RLU)” value in assay [1] was 589000 RLU. Moreover, the ELISA Fc Control (RLU) in assay [2] was 320 RLU.

B17: ISOP120HR5P1G6 (designed binder, not shown: small tags and cut ends)
chain: LPAPKNLVVSRVTEDSARLSWTAPDAAFDSFEIYYFELRLGGEAIVLTVPGSERSYDLTGLKPGTEYLVTIYGVKGGLDSQPLSAIFTT
notes: as for B1
In the case of B17, the “ELISA HSA (RLU)” value with human serum albumin amounted to 320 RLU. Besides, in assay [1], the “ELISA CD137-Fc (RLU)” value turned out to be 2.04e+06 RLU. For the same molecule, the ELISA Fc Control (RLU) in assay [2] stood at 400 RLU.

B18: ISOP120HR5P1D7 (designed binder, not shown: small tags and cut ends)
chain: LPAPKNLVVSRVTEDSARLSWTAPDAAFDSFDIYYLESWTRGEAIVLTVPGSERSYDLTGLKPGTEYLVTIYGVKGGSYSRPLSAIFTT
notes: as for B1
For B18, the “ELISA HSA (RLU)” value with human serum albumin came to 320 RLU. In addition, the “ELISA CD137-Fc (RLU)” value in assay [1] stood at 1.1e+06 RLU. The ELISA Fc Control (RLU) in assay [2] was found to be 320 RLU.

B19: ISOP120FR5P1F1 (designed binder, not shown: small tags and cut ends)
chain: LPAPKNLVVSRVTEDSARLSWTAPDAAFDSFTIYYFENENGGEAIVLTVPGSERSYDLTGLKPGTEYLVTIYGVKGCDWSDPLSAIFTT
notes: as for B1
As for B19, the “ELISA HSA (RLU)” value in the assay with human serum albumin came out at 640 RLU. In addition, the “ELISA CD137-Fc (RLU)” value in assay [1] worked out at 1.23e+06 RLU. Moreover, in assay [2], the ELISA Fc Control (RLU) worked out at 480 RLU.

B20: ISOP120HR5P1A3 (designed binder, not shown: small tags and cut ends)
chain: LPAPKNLVVSRVTEDSARLSWTAPDAAFDSFEIYYAEFGYYGEAIVLTVPGSERSYDLTGLKPGTEYTVTIYGVKGGWYSTPLSAIFTT
notes: as for B1
As for B20, the “ELISA HSA (RLU)” value with human serum albumin was 240 RLU. Also, the “ELISA CD137-Fc (RLU)” value in assay [1] stood at 1.08e+06 RLU. Also, the ELISA Fc Control (RLU) in assay [2] was determined as 560 RLU.
